Data published in PMC3382582, “The Estrogen-Related Receptor Alpha Upregulates Secretin Expressions in Response to Hypertonicity and Angiotensin II Stimulation”.

Target: T1, ERRα (in vitro translated) (Mus musculus, UniProt O08580 1-422)
T1 sequence: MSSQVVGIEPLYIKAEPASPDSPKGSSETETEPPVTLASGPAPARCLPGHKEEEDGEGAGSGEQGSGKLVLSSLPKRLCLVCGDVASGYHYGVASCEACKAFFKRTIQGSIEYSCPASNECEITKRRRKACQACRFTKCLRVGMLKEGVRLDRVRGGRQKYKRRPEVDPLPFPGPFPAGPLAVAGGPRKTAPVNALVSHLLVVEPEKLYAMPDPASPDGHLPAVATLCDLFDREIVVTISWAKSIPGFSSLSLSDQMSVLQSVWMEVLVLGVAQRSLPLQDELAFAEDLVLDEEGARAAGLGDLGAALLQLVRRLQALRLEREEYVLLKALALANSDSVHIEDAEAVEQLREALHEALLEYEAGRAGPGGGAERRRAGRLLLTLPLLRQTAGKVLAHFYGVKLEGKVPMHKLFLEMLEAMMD
Test: EMSA; 2.5 mM MgCl2, poly(dI:dC); EMSA: 10 mM Tris pH 7.5, 50 mM NaCl, 2.5 mM MgCl2, 0.5 mM DTT, 4% glycerol, 2 µg poly(dI:dC), 1 pmol probe, 20 µl, room temperature 15 min; 5% polyacrylamide gel
Conditions: protein: ivt; label: 32P 5' end label (T4 PNK); strands as printed are 17 and 16 nt; S6 lacks one G relative to the exact complement of S5 (possible misprint)

B1: GS-ERRα (SCT promoter ERE-half site oligo) (dsDNA)
DNA 1: GCCCCTGACCTTCCCGG
DNA 2: CCGGGAAGGTCAGGGC
binding result: binds
